From patent US20250340660A1 (published 2025)

T1: human CD30L expressed on B16 cells (human, UniProt P32971 1-234)
T1 sequence (looked up): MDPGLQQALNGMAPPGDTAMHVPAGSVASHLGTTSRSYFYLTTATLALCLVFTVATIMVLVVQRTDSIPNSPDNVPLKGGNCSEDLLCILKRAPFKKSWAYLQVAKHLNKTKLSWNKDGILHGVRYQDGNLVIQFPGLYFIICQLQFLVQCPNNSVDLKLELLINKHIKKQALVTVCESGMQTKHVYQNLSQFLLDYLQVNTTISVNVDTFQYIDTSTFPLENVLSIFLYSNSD

T2: cynomolgus CD30L expressed on HEK293 cells (cynomolgus, UniProt A0A7N9CVX7 1-234)
T2 sequence: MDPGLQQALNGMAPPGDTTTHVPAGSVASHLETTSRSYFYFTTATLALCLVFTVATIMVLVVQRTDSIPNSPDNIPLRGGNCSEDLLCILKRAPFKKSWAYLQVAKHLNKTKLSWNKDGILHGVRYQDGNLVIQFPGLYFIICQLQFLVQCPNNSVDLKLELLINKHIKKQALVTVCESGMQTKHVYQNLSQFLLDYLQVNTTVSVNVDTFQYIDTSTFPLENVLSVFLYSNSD

T3: recombinant human CD30L protein (human, UniProt P32971 63-234, limits assumed)
T3 construct: also called huCD30L; rhCD30L
T3 sequence (looked up): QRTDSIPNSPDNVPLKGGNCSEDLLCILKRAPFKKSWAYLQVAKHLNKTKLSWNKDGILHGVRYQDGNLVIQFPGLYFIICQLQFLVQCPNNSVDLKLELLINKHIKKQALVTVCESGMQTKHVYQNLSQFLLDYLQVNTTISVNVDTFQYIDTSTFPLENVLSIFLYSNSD

T4: human CD30L expressed on cells (human, UniProt P32971 1-234)
T4 construct: also called huCD30L; TNFSF8
T4 sequence: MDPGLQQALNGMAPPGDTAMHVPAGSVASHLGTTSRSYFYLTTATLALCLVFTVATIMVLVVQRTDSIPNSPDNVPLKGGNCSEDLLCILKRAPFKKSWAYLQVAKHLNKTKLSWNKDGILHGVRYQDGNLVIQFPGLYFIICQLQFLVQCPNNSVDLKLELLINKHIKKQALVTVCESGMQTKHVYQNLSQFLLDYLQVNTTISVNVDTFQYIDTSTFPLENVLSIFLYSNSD

T5: cynomolgus CD30L expressed on cells (cynomolgus, UniProt A0A7N9CVX7 1-234)
T5 construct: whole, on cells; also called cyCD30L; cyno CD30L
T5 sequence: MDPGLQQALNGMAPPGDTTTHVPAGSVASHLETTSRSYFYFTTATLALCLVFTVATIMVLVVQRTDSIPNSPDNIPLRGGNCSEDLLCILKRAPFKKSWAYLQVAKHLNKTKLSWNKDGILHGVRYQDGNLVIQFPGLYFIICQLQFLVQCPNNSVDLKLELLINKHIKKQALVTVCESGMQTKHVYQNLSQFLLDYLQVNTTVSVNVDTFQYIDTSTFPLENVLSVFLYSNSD

T6: human CD30L (recombinant protein) (human, UniProt P32971 63-234)
T6 construct: also called rhCD30L; TNFSF8
T6 sequence: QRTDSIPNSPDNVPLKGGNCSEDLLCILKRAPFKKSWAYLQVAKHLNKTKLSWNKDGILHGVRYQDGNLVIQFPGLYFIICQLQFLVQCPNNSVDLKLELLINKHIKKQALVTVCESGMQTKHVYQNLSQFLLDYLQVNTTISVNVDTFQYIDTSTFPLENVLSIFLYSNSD

T7: recombinant human CD30L (human, UniProt P32971 63-234, limits assumed)
T7 construct: also called rhCD30L; TNFSF8
T7 sequence (looked up): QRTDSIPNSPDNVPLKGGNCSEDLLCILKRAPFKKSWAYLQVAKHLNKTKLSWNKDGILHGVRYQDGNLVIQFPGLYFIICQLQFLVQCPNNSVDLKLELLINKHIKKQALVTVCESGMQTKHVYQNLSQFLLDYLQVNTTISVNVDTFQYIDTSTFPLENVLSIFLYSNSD


Legend:
[1] = target: T1, human CD30L expressed on B16 cells; experiment: cell-based or functional assay
[2] = target: T2, cynomolgus CD30L expressed on HEK293 …; experiment: cell-based or functional assay
[3] = target: T3, recombinant human CD30L protein; experiment: ELISA, hybridoma supernatant 1/50 dil, recombinant human CD30L
[4] = target: T3, recombinant human CD30L protein; experiment: ELISA, hybridoma supernatant 1/500 dil, recombinant human CD30L
[5] = target: T3, recombinant human CD30L protein; experiment: ELISA, hybridoma supernatant 1/5000 dil, recombinant human CD30L
[6] = target: T4, human CD30L expressed on cells; experiment: flow cytometry, hybridoma supernatant 1/50 dil, cells expressing human CD30L
[7] = target: T5, cynomolgus CD30L expressed on cells; experiment: flow cytometry, hybridoma supernatant 1/50 dil, cells expressing cynomolgus CD30L
[8] = target: T6, human CD30L (recombinant protein); experiment: Carterra, human CD30L
recombinant human CD30L = target: T7, recombinant human CD30L; experiment: biosensor: antibody captured, CD30L bound, competitor rhCD30 added; signal of CD30 association (over 0.15 = non-blocking)
Procedure: Briefly, individual anti-human biosensors were loaded with purified IgG (normalized to 10 μg/mL) and a baseline was measured for each biosensor. Biosensors were saturated with biotin and with polyclonal huIgG and a baseline was measured. […] Biosensors were moved to buffer wells to measure the dissociation rate.

| Inhibition of IL-8 release in a dual cell assay (B16-huCD30L cells + K299 cells) IC50 [1] [nM] | Inhibition of IL-8 release in a dual cell assay (HEK293-cyCD30L cells + K299 cells) IC50 [2] [nM] | Elisa Binding (OD) [3] [OD] | Elisa Binding (OD) [4] [OD] | Elisa Binding (OD) [5] [OD] | Cell Binding (MFI) [6] [MFI] | Cell Binding (MFI) [7] [MFI] | Binder | further results |
| --- | --- | --- | --- | --- | --- | --- | --- | --- |
| 1.43 | 0.39 |  |  |  |  |  | anti-CD30L antibody clone 1 (antibody, V domains shown) VH: QVQLQESGPGLVKPSETLSLTCTVSGGSISGYYWSWIRQPPVKGLEWIGYIFYSGYTKYNPSLKSRVTISVDTSKNQFSLKLSSVTAADTAVYYCARDRWDFDYWGQGALVTVSS VL: AIQMTQSPSYLSASVGDRVTIACRASQGIRNNLGWYQQKPGKAPKLLIYAESSLQSGVPSRFSGSGSGTDFTLTISSLQPEDFATYYCLQDFNYPYTFGQGTKLEIK |  |
| 1.29 | 0.43 |  |  |  |  |  | anti-CD30L antibody clone 1 germlined (antibody, V domains shown) VH: QVQLQESGPGLVKPSETLSLTCTVSGGSISGYYWSWIRQPPGKGLEWIGYIFYSGYTKYNPSLKSRVTISVDTSKNQFSLKLSSVTAADTAVYYCARDRWDFDYWGQGTLVTVSS VL: AIQMTQSPSSLSASVGDRVTITCRASQGIRNNLGWYQQKPGKAPKLLIYAESSLQSGVPSRFSGSGSGTDFTLTISSLQPEDFATYYCLQDFNYPYTFGQGTKLEIK |  |
|  |  | 3.5 | 2.54 | 0.662 | 153 | 72.4 | anti-CD30L antibody Clone 3 (parental, hybridoma) (antibody, V domains shown, Tested as diluted hybridoma supernatant from mice with a humanized immunoglobulin locus) VH: QVQLQESGPGLVKPSETLSLTCTVSGGSISGYYWSWIRQPPVKGLEWIGYIFYSGYTKYNPSLKSRVTISVDTSKNQFSLKLSSVTAADTAVYYCARDRWDFDYWGQGALVTVSS VL: not shown |  |
|  |  | 3.59 | 3.02 | 1.28 | 208 | 77.3 | anti-CD30L antibody Clone 1 (parental, hybridoma) (antibody, V domains shown, Tested as diluted hybridoma supernatant from mice with a humanized immunoglobulin locus) VH: QVQLQESGPGLVKPSETLSLTCTVSGGSISGYYWSWIRQPPVKGLEWIGYIFYSGYTKYNPSLKSRVTISVDTSKNQFSLKLSSVTAADTAVYYCARDRWDFDYWGQGALVTVSS VL: AIQMTQSPSYLSASVGDRVTIACRASQGIRNNLGWYQQKPGKAPKLLIYAESSLQSGVPSRFSGSGSGTDFTLTISSLQPEDFATYYCLQDFNYPYTFGQGTKLEIK |  |
|  |  | 3.08 | 2.65 | 0.68 | 151 | 67.8 | anti-CD30L antibody Clone 4 (parental, hybridoma) (antibody, V domains shown, Tested as diluted hybridoma supernatant from mice with a humanized immunoglobulin locus) VH: QVQLVESGGGVVQPGRSLRLSCAASGFPFSSYGMHWVRQAPGKGLEWVTFIWFDGNNKDYADSVKGRFSVSRDNSKNTLYLQMNSLRADDTAVYYCARNGVYYGSGAYVDYWGQGTLVTVSS VL: not shown |  |
| 1.61 | 0.79 |  |  |  |  |  | anti-CD30L Reference 1 antibody (antibody, human IgG1, lambda, V domains shown) VH: QVQLQESGPGLVKPSETLSLTCTVSGGSISSYIWSWIRQPAGKGLEWIGRIYASGNTNYNPSLKSRVTISVDTSKNQFSLKLSSMTAADTAVYYCARDYRVAGTYYYYYGLDVWGQGTTVTVSS VL: QSALTQPASVSGSPGQSITISCTGTSSDVGVYDYVSWYQQHPGKAPKLMIYEVSNRPSGVSNRFSGSKSGNTASLTISGLQTEDEADYYCSSYTSRSTWVFGGGTKLTVLG |  |
|  |  |  |  |  |  |  | anti-CD30L antibody clone 63 (antibody, V domains shown, Purified recombinant antibody) VH: EVQLVESGGGLVQPGGSLRLSCAASGFMFSSYSMNWVRQAPGKGLEWVSYISSSSSTIYDADSVKGRFTISRDDAKNSLYLQMNSLRDEDTAVYYCTREAYPGYYYNYMDVWGKGTTVTVSS VL: DIQMTQSPSSLSASVGDRVTITCRASQSISSRLAWYQQKPGKAPNLLIYKASNLESGVPSRFSGSGSGTEFTLTISSLQPDDFATYYCQQYNSYSRTFGQGTKVEIK | Kd [8]: 1.85 nM |
|  |  |  |  |  |  |  | anti-CD30L antibody clone 63 (antibody, V domains shown, purified recombinant IgG, humanized mouse strain #1; also called Clone ID 63) VH: EVQLVESGGGLVQPGGSLRLSCAASGFMFSSYSMNWVRQAPGKGLEWVSYISSSSSTIYDADSVKGRFTISRDDAKNSLYLQMNSLRDEDTAVYYCTREAYPGYYYNYMDVWGKGTTVTVSS VL: DIQMTQSPSSLSASVGDRVTITCRASQSISSRLAWYQQKPGKAPNLLIYKASNLESGVPSRFSGSGSGTEFTLTISSLQPDDFATYYCQQYNSYSRTFGQGTKVEIK | rhCD30L:rhCD30 Blocking (recombinant human CD30L): 0.0592 relative units |
